The values below come from patent US20200317768A1 (published 2020).

In assay [1] the target is T1, human FcγRIIaR extracellular domain, C-terminal His-tag (human, UniProt P12318 34-217).
T1 construct: Soluble extracellular domain expressed in FreeStyle 293 cells; also called FcgRIIaR; human FcγRIIa (type R); not shown: His-tag added to the C-terminus
T1 chain: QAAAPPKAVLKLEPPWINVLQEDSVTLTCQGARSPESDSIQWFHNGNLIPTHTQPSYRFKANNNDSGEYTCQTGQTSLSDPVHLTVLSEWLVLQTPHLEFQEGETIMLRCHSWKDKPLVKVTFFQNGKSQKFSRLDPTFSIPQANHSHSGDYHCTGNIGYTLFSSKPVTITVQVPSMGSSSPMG
Description: SPR (BIACORE); KD of SG1 divided by KD of the variant. The protocol: (§1) The kinetic analysis of interactions between these antibodies and FcγR was carried out using BIACORE® T200 or BIACORE® 4000 (GE Healthcare). HBS-EP+ (GE Healthcare) was used as the running buffer, and the measurement temperature was set to 25° C. A chip produced by immobilizing Protein A. Protein A/G or mouse anti-human IgG kappa light chain (BD Biosciences) onto a Series S Sensor Chip CM4 or CM5 (GE Healthcare) by the amine-coupling method was used. […] After the measurement, the antibody captured on the chip was washed off by allowing reaction with 10 mM glycine-HCl, pH1.5 and 25 mM NaOH so that the chip was regenerated and used repeatedly. The sensorgrams obtained as measurement results were analyzed by the 1:1 Langmuir binding model using the BIACORE® Evaluation Software to calculate the binding rate constant ka (L/mol/s) and dissociation rate constant kd (l/s), and the dissociation constant KD (mol/L) was calculated from these values. […] Regarding such interactions, KD values were calculated using the following 1:1 binding model described in BIACORE® T100 Software Handbook BR1006-48 Edition AE.
(§2) Furthermore, the substitutions used in Example 29 for improving antibody half-life and reducing binding to rheumatoid factor were introduced into human FcγRIIb-enhanced Fc variants and their affinity against human FcγRs were analyzed (Table 29). In this SPR analysis, all the data were obtained using mouse anti-human IgG kappa light chain for capturing the antibodies of interest.

Assay [2] deals with T2, human FcγRIIaH extracellular domain, C-terminal His-tag (human, UniProt P12318 34-217).
T2 construct: Soluble extracellular domain expressed in FreeStyle 293 cells; also called FcgRIIaH; human FcγRIIa (type H); not shown: His-tag added to the C-terminus
T2 sequence: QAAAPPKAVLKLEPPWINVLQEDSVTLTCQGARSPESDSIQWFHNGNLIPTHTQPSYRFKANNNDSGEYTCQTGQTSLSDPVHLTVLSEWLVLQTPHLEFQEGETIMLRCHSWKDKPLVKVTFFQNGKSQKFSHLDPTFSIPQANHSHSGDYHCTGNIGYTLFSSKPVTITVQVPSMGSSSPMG
The description is as above. On the procedure: as §1, §2

Assay [3] concerns the target T3, human FcγRIIIaV extracellular domain, C-terminal His-tag (human, UniProt P08637 17-208).
T3 construct: Soluble extracellular domain expressed in FreeStyle 293 cells; also called FcgRIIIaV; not shown: His-tag added to the C-terminus
Described as above. The protocol:
as §1, §2

Assay [4] concerns the target T4, human FcγRIIb extracellular domain, C-terminal His-tag (human, UniProt P31994 43-217).
T4 construct: Soluble extracellular domain expressed in FreeStyle 293 cells; also called FcgRIIb; not shown: His-tag added to the C-terminus
T4 sequence: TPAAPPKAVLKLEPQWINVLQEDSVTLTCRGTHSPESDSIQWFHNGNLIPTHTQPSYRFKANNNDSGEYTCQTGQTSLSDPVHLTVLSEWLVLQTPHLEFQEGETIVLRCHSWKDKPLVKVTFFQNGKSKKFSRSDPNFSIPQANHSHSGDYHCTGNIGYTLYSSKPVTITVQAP
The assay is described as above. On the procedure: as §1, §2

Assay [5] has as its target T1, human FcγRIIaR extracellular domain, …. Description: SPR (BIACORE), antibody captured by mouse anti-human IgG kappa light chain, FcgR extracellular domain as analyte, 25 C. The protocol: as §1, §2
Assay [6] deals with T2, human FcγRIIaH extracellular domain, …. The assay is described as above. On the procedure:
as §1, §2

The target in assay [7] is T3, human FcγRIIIaV extracellular domain, …. Described as above. The protocol:
as §1, §2

In assay [8] the target is T4, human FcγRIIb extracellular domain, …. The assay is described as above. On the procedure: as §1, §2

T3 sequence (P08637 17-208 F176V): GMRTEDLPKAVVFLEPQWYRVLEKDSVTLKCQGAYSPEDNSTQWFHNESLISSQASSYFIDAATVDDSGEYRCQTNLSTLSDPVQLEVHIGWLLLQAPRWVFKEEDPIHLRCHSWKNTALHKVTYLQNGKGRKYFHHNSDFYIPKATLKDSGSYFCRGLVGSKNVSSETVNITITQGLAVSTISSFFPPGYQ

B1: MS103240H795-SG1/M103202L1045-SK1 (antibody, human IgG1, kappa)
heavy: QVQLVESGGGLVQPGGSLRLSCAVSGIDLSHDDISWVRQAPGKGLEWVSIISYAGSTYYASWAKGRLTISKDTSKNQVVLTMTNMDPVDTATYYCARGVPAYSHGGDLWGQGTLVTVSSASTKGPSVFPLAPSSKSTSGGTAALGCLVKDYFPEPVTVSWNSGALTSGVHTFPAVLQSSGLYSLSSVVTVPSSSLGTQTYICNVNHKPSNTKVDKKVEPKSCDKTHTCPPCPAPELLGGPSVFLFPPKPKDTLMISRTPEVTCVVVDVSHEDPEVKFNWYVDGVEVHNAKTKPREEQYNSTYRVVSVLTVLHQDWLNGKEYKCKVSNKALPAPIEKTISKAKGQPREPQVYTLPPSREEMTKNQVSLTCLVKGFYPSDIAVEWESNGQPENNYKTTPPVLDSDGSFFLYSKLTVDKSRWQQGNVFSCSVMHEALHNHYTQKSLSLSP
light: DIVMTQSPATLSLSPGERATLSCTTSQSVYHENWLSWFQQKPGQPPKLLIYWASTLAYGVPSRFSGSGSGTDFTLTISSLQPEDAATYYCAGGYGGGRYAFGQGTKVEIKRTVAAPSVFIFPPSDEQLKSGTASVVCLLNNFYPREAKVQWKVDNALQSGNSQESVTEQDSKDSTYSLSSTLTLSKADYEKHKVYACEVTHQGLSSPVTKSFNRGEC
notes: Parent constant region SG1 (human IgG1-like); also called MS1032LO19-SG1; copies: 2 + 2
With B1, the “KD fold for humanFcgRs (SG1 = 1)” value in assay [1], in assay [2], in assay [3] and in assay [4] was 1 fold in each case. For the same molecule, the Kd came to 1.2 µM in assay [5], 0.97 µM in assay [6], 0.72 µM in assay [7] and 4700 nM in assay [8].

B2: MS103240H795-TT33/M103202L1045-SK1 (antibody, human IgG1, kappa)
heavy: QVQLVESGGGLVQPGGSLRLSCAVSGIDLSHDDISWVRQAPGKGLEWVSIISYAGSTYYASWAKGRLTISKDTSKNQVVLTMTNMDPVDTATYYCARGVPAYSHGGDLWGQGTLVTVSSASTKGPSVFPLAPSSKSTSGGTAALGCLVKDYFPEPVTVSWNSGALTSGVHTFPAVLQSSGLYSLSSVVTVPSSSLGTQTYICNVNHKPSNTKVDKKVEPKSCDKTHTCPPCPAPEYLGGDSVFLFPPKPKDVLMISRTPEVTCVVIDVSHEDPEVKFNWYVDGVEVHNAKTKPREEQYNSTYRVVSVLPVLHRDWLNGKEYKCKVSNKALPKPIEKTISKAKGQPREPQVYTLPPSREEMTKNQVSLTCLVKGFYPSDIAVEWESNGQPENNYKTTPPVLDSDGSFFLYSKLTVKKSRWQQGNVFSCSVMHEALHNHYTQKSLSLSP
light: DIVMTQSPATLSLSPGERATLSCTTSQSVYHENWLSWFQQKPGQPPKLLIYWASTLAYGVPSRFSGSGSGTDFTLTISSLQPEDAATYYCAGGYGGGRYAFGQGTKVEIKRTVAAPSVFIFPPSDEQLKSGTASVVCLLNNFYPREAKVQWKVDNALQSGNSQESVTEQDSKDSTYSLSSTLTLSKADYEKHKVYACEVTHQGLSSPVTKSFNRGEC
notes: copies: 2 + 2
With B2, the “KD fold for humanFcgRs (SG1 = 1)” value in assay [1] came out at 0.05 fold; in assay [2], 0.028 fold; in assay [3], 0.002 fold; in assay [4], 15.7 fold. Also, the Kd in assay [5] was 23 µM; in assay [6] it was 35 µM; in assay [7], 400 µM; in assay [8] it was 300 nM.

B3: MS103240H795-TT66/M103202L1045-SK1 (antibody)
heavy: QVQLVESGGGLVQPGGSLRLSCAVSGIDLSHDDISWVRQAPGKGLEWVSIISYAGSTYYASWAKGRLTISKDTSKNQVVLTMTNMDPVDTATYYCARGVPAYSHGGDLWGQGTLVTVSSASTKGPSVFPLAPSSKSTSGGTAALGCLVKDYFPEPVTVSWNSGALTSGVHTFPAVLQSSGLYSLSSVVTVPSSSLGTQTYICNVNHKPSNTKVDKKVEPKSCDKTHTCPPCPAPELLGGDSVFLFPPKPKDVLMISRTPEVTCVVVDVSHEDPEVKFNWYVDGVEVHNAKTKPREEQYNSTYRVVSVLPVLHRDWLNGKEYKCKVSNKALPKPIEKTISKAKGQRREPQVYTLPPSREEMTKNQVSLTCLVKGFYPSDIAVEWESNGQPENNYKTTPPVLDSDGSFFLYSKLTVDKSRWQQGNVFSCSVMHEALHAHYTRKELSLSP
light: DIVMTQSPATLSLSPGERATLSCTTSQSVYHENWLSWFQQKPGQPPKLLIYWASTLAYGVPSRFSGSGSGTDFTLTISSLQPEDAATYYCAGGYGGGRYAFGQGTKVEIKRTVAAPSVFIFPPSDEQLKSGTASVVCLLNNFYPREAKVQWKVDNALQSGNSQESVTEQDSKDSTYSLSSTLTLSKADYEKHKVYACEVTHQGLSSPVTKSFNRGEC
With B3, the “KD fold for humanFcgRs (SG1 = 1)” value in assay [1] was found to be 0.04 fold; in assay [2], 0.007 fold; in assay [3], 0.001 fold; in assay [4], 4.7 fold. In addition, the Kd came out at 32 µM in assay [5], 130 µM in assay [6], 590 µM in assay [7] and 1000 nM in assay [8].

B4: MS103240H795-TT68/M103202L1045-SK1 (antibody)
heavy: QVQLVESGGGLVQPGGSLRLSCAVSGIDLSHDDISWVRQAPGKGLEWVSIISYAGSTYYASWAKGRLTISKDTSKNQVVLTMTNMDPVDTATYYCARGVPAYSHGGDLWGQGTLVTVSSASTKGPSVFPLAPSSKSTSGGTAALGCLVKDYFPEPVTVSWNSGALTSGVHTFPAVLQSSGLYSLSSVVTVPSSSLGTQTYICNVNHKPSNTKVDKKVEPKSCDKTHTCPPCPAPELLGGDSVFLFPPKPKDVLMISRTPEVTCVVVDVSHEDPEVKFNWYVDGVEVHNAKTKPREEQYNSTYRVVSVLPVLHRDWLNGKEYKCKVSNKALPKPIEKTISKAKGQPREPQVYTLPPSREEMTKNQVSLTCLVKGFYPSDIAVEWESNGQPENNYKTTPPVLDSDGSFFLYSKLTVKKSRWQQGNVFSCSVMHEALHAHYTRKELSLSP
light: DIVMTQSPATLSLSPGERATLSCTTSQSVYHENWLSWFQQKPGQPPKLLIYWASTLAYGVPSRFSGSGSGTDFTLTISSLQPEDAATYYCAGGYGGGRYAFGQGTKVEIKRTVAAPSVFIFPPSDEQLKSGTASVVCLLNNFYPREAKVQWKVDNALQSGNSQESVTEQDSKDSTYSLSSTLTLSKADYEKHKVYACEVTHQGLSSPVTKSFNRGEC
notes: copies: 2 + 2
As for B4, the “KD fold for humanFcgRs (SG1 = 1)” value was found to be 0.02 fold in assay [1], 0.005 fold in assay [2], 0.001 fold in assay [3] and 4.9 fold in assay [4]. Besides, the dissociation constant (Kd) in assay [5] amounted to 61 µM; in assay [6], 210 µM; in assay [7], 480 µM; in assay [8], 960 nM.

B5: MS103240H795-TT67/M103202L1045-SK1 (antibody)
heavy: QVQLVESGGGLVQPGGSLRLSCAVSGIDLSHDDISWVRQAPGKGLEWVSIISYAGSTYYASWAKGRLTISKDTSKNQVVLTMTNMDPVDTATYYCARGVPAYSHGGDLWGQGTLVTVSSASTKGPSVFPLAPSSKSTSGGTAALGCLVKDYFPEPVTVSWNSGALTSGVHTFPAVLQSSGLYSLSSVVTVPSSSLGTQTYICNVNHKPSNTKVDKKVEPKSCDKTHTCPPCPAPELLGGDSVFLFPPKPKDVLMISRTPEVTCVVVDVSHEDPEVKFNWYVDGVEVHNAKTKPREEQYNSTYRVVSVLPVLHRDWLNGKEYKCKVSNKALPKPIEKTISKAKGQRREPQVYTLPPSREEMTKNQVSLTCLVKGFYPSDIAVEWESNGQPENNYKTTPPVLDSDGSFFLYSKLTVDKSRWQQGNVFSCSVLHEALHAHTTRKELSLSP
light: DIVMTQSPATLSLSPGERATLSCTTSQSVYHENWLSWFQQKPGQPPKLLIYWASTLAYGVPSRFSGSGSGTDFTLTISSLQPEDAATYYCAGGYGGGRYAFGQGTKVEIKRTVAAPSVFIFPPSDEQLKSGTASVVCLLNNFYPREAKVQWKVDNALQSGNSQESVTEQDSKDSTYSLSSTLTLSKADYEKHKVYACEVTHQGLSSPVTKSFNRGEC
For B5, the “KD fold for humanFcgRs (SG1 = 1)” value in assay [1] stood at 0.04 fold; in assay [2] it was 0.008 fold; in assay [3], 0.001 fold; in assay [4], 3.9 fold. Moreover, the Kd in assay [5] turned out to be 28 µM; in assay [6] it was 120 µM; in assay [7] it was 610 µM; in assay [8], 1200 nM.
